Data set [1] deals with T1, 10-subunit holoTFIIH (coreTFIIH with TFIIK: Kin28–Ccl1–Tfb3) (Saccharomyces cerevisiae | yeast, UniProt Q00578 1-843; P06839 1-778; P32776 1-642; Q02939 1-513; Q04673 1-461; Q12004 …).
T1 construct: Ssl2 (XPB homologue), subunit of yeast TFIIH; Rad3 (XPD homologue), subunit of yeast TFIIH; Tfb1 (p62 homologue), subunit of yeast TFIIH; Tfb2 (p52 homologue), subunit of yeast TFIIH; Ssl1 (p44 homologue), subunit of yeast TFIIH; Tfb4 (p34 homologue), subunit of yeast TFIIH; Tfb5 (p8 homologue), subunit of yeast TFIIH; Kin28, kinase subunit of yeast TFIIK; Ccl1, cyclin subunit of yeast TFIIK; …
Put plainly: co-sedimentation; 10–40% glycerol gradient (20 mM HEPES, 150 mM potassium acetate, 2 mM magnesium acetate, 4 mM DTT, 2 mM ATP or AMP-PNP), 52,000 rpm 6 h 35 min, 4 °C; Rad4–Rad23–Rad33 pre-assembled on −24*/+24 AAF-DNA, then added to TFIIH; fractions by SDS-PAGE. Conditions: both partners purified.

For another data set, the target named is T2, 7-subunit coreTFIIH (Saccharomyces cerevisiae | yeast, UniProt Q00578 1-843; P06839 1-778; P32776 1-642; Q02939 1-513; Q04673 1-461; Q12004 …).
T2 construct: Ssl2 (XPB homologue), ATPase/translocase subunit of yeast coreTFIIH; printed numbering runs to residue 843; Rad3 (XPD homologue), helicase subunit of yeast coreTFIIH; Tfb1 (p62 homologue), subunit of yeast coreTFIIH; Tfb2 (p52 homologue), subunit of yeast coreTFIIH; Ssl1 (p44 homologue), subunit of yeast coreTFIIH; Tfb4 (p34 homologue), subunit of yeast coreTFIIH; Tfb5 (p8 homologue), subunit of …
The data set is described as follows: co-sedimentation; factor challenge: Rad2 added (~6-fold molar excess) to TFIIH/Rad4–23–33/AAF-DNA with ATP, 60 min, then 10–40% glycerol gradient (150 mM potassium acetate, 2 mM ATP), 4 °C; SDS-PAGE and densitometry. The settings on record: both partners purified.

Another data set deals with coreTFIIH (7 subunits) (Saccharomyces cerevisiae? (yeast, tfb6 …, UniProt Q00578;P06839;P32776;Q02939;Q04673;Q12004;Q3E7C1 …)). Put plainly: glycerol gradient sedimentation; ATP; EMSA: 20 mM HEPES, 100 mM K-acetate, 2 mM Mg-acetate, 5 mM DTT, room temperature 20 min, 250 nM each component, 0.2x TBE agarose gel at 4 C (pH not stated in this buffer). Conditions: protein: native; tags: TAP tags on Tfb4 and Ssl2; TEV-treated; copies: 1;1;1;1;1;1;1; label: 32P 5' end (T4 PNK) in EMSA; 5' overhang on strand 1: 9 nt from printed strands (text says 10 nt).

B1: Rad4–Rad23–Rad33 complex (complex, yeast)
chain 1: MNEDLPKEYFELIRKALNEKEAEKAPLSRRRRVRRKNQPLPDAKKKFKTGLNELPRESVVTVNLDSSDDGVVTVPTDDSVEEIQSSEEDYDSEEFEDVTDGNEVAGVEDISVEIKPSSKRNSDARRTSRNVCSNEERKRRKYFHMLYLVCLMVHGFIRNEWINSKRLSRKLSNLVPEKVFELLHPQKDEELPLRSTRKLLDGLKKCMELWQKHWKITKKYDNVGLYMRTWKEIEMSANNKRKFKTLKRSDFLRAVSKGHGDPDISVQGFVAMLRACNVNARLIMSCQPPDFTNMKIDTSLNGNNAYKDMVKYPIFWCEVWDKFSKKWITVDPVNLKTIEQVRLHSKLAPKGVACCERNMLRYVIAYDRKYGCRDVTRRYAQWMNSKVRKRRITKDDFGEKWFRKVITALHHRKRTKIDDYEDQYFFQRDESEGIPDSVQDLKNHPYYVLEQDIKQTQIVKPGCKECGYLKVHGKVGKVLKVYAKRDIADLKSARQWYMNGRILKTGSRCKKVIKRTVGRPKGEAEEEDERLYSFEDTELYIPPLASASGEITKNTFGNIEVFAPTMIPGNCCLVENPVAIKAARFLGVEFAPAVTSFKFERGSTVKPVLSGIVVAKWLREAIETAIDGIEFIQEDDNRKEHLLGALESWNTLLLKLRIRSKLNSTYGKIAEEEPNVTKEQNIADNHDNTETFMGGGFLPGIANHEARPYSEPSEPEDSLDYVSVDKAEESATDDDVGEDYSDFMKELEMSEESD
chain 2: MVSLTFKNFKKEKVPLDLEPSNTILETKTKLAQSISCEESQIKLIYSGKVLQDSKTVSECGLKDGDQVVFMVSQKKSTKTKVTEPPIAPESATTPGRENSTEASPSTDASAAPAATAPEGSQPQEEQTATTERTESASTPGFVVGTERNETIERIMEMGYQREEVERALRAAFNNPDRAVEYLLMGIPENLRQPEPQQQTAAAAEQPSTAATTAEQPAEDDLFAQAAQGGNASSGALGTTGGATDAAQGGPPGSIGLTVEDLLSLRQVVSGNPEALAPLLENISARYPQLREHIMANPEVFVSMLLEAVGDNMQDVMEGADDMVEGEDIEVTGEAAAAGLGQGEGEGSFQVDYTPEDDQAISRLCELGFERDLVIQVYFACDKNEEAAANILFSDHAD
chain 3: MSKSTNVSYERVELFENPKVPIEVEDEILEKYAESSLDHDMTVNELPRFFKDLQLEPTIWKLVRNEDVIIEGTDVIDFTKLVRCTCQLLILMNNLTVIDDLWSMLIRNCGRDVDFPQVALRDHVLSVKDLQKISNLIGADQSSGTIEMISCATDGKRLFMTYLDFGCVLGKLGYLKM
notes: Rad4 (XPC homologue), yeast; Rad23 (RAD23B homologue), yeast; Rad33 (CETN2 homologue), yeast; plasmid pETDuet-RAD33; also called Rad4–23–33; yeast homologue of XPC–RAD23B–CETN2; copies: + +
For B1, the binding result in data set [1] is given as “binds”.

B2: Rad2 (natural protein, yeast, UniProt P07276 1-1031, looked up)
chain: MGVHSFWDIAGPTARPVRLESLEDKRMAVDASIWIYQFLKAVRDQEGNAVKNSHITGFFRRICKLLYFGIRPVFVFDGGVPVLKRETIRQRKERRQGKRESAKSTARKLLALQLQNGSNDNVKNSTPSSGSSVQIFKPQDEWDLPDIPGFKYDKEDARVNSNKTFEKLMNSINGDGLEDIDLDTINPASAEFEELPKATQYLILSSLRLKSRLRMGYSKEQLETIFPNSMDFSRFQIDMVKRRNFFTQKLINTTGFQDGGASKLNEEVINRISGQKSKEYKLTKTNNGWILGLGANDGSDAQKAIVIDDKDAGALVKQLDSNAEDGDVLRWDDLEDNSLKIVRHESSNATTAPQKRSNRSEDEGCDSDECEWEEVELKPKNVKFVEDFSLKAARLPYMGQSLNNAGSKSFLDKRHDQASPSKTTPTMRISRISVEDDDEDYLKQIEEIEMMEAVQLSKMEKKPEADDKSKIAKPVTSKGTEARPPIVQYGLLGAQPDSKQPYHVTNLNSKSESVIKRTSKTVLSEFRPPSQQEDKGAILTEGEQNLNFISHKIPQFDFNNENSLLFQKNTESNVSQEATKEKSPIPEMPSWFSSTASQQLYNPYNTTNFVEDKNVRNEQESGAETTNKGSSYELLTGLNATEILERESEKESSNDENKDDDLEVLSEELFEDVPTKSQISKEAEDNDSRKVESINKEHRKPLIFDYDFSEDEEDNIVENMIKEQEEFDTFKNTTLSTSAERNVAENAFVEDELFEQQMKDKRDSDEVTMDMIKEVQELLSRFGIPYITAPMEAEAQCAELLQLNLVDGIITDDSDVFLFGGTKIYKNMFHEKNYVEFYDAESILKLLGLDRKNMIELAQLLGSDYTNGLKGMGPVSSIEVIAEFGNLKNFKDWYNNGQFDKRKQETENKFEKDLRKKLVNNEIILDDDFPSVMVYDAYMRPEVDHDTTPFVWGVPDLDMLRSFMKTQLGWPHEKSDEILIPLIRDVNKRKKKGKQKRINEFFPREYISGDKKLNTSKRISTATGKLKKRKM
notes: Rad2 (XPG homologue), yeast; plasmid pGVD52-RAD2HisSumo; also called yeast homolog of XPG; source: E. coli Rosetta(DE3), purified (HisTrap, Ulp1 cleavage, HisTrap flow-through, Heparin HP)
Regarding B2, the “percent of TFIIH dissociated from Rad4–Rad23–Rad33 and bound to Rad2 (Rad2 in ~6-fold molar excess, ATP)” value with 7-subunit coreTFIIH is roughly 50%.

B3: -24*/+24 AAF (dsDNA)
DNA 1: CCCATTCCAACCATCCCACTACCTGTCCATCTTCACTCAACTATCACCC
DNA 2: GGGTGATAGTTGAGTGAAGATGGACAGGTAGTGGGATGGT
modifications: N-2-acetylaminofluorene adduct on the single G of strand 1 (nt 25, position 0)
In the case of B3, in the data set with coreTFIIH (7 subunits), the binding result was “binds”.
